Laboratory results taken from the supplement of paper PMC5998384.

Columns and labels:
[1] = system: HeLa Kyoto; experiment: solubility in G1/S (NP-40 vs SDS abundance) (log2 ratio); higher = more soluble; conditions: cell cycle stage: G1/S
[2] = system: HeLa Kyoto; experiment: melting temperature (median over replicates), in situ; higher = more thermally stable
[3] = system: HeLa Kyoto; experiment: solubility change mitosis vs G1/S (difference of NP-40 vs SDS log2 ratios) (log2 ratio difference); higher = more soluble in mitosis
[4] = system: HeLa Kyoto; experiment: thermal stability score vs G1/S (z-score of summed log2 fold changes over temperatures); higher = more thermally stable than in G1/S
[5] = cell cycle stage: early G1 (4.5 h after nocodazole release)
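For melting temperature (median over replicates), in situ in this document: HeLa Kyoto cells synchronized by double thymidine or nocodazole block, proteins quantified by TMT10plex mass spectrometry, three independent biological replicates.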
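For solubility change mitosis vs G1/S (difference of NP-40 vs SDS log2 ratios) in this document: synchronized HeLa Kyoto cells (double thymidine block for G1/S, nocodazole release for mitosis), protein amounts in NP-40 versus SDS lysates quantified by mass spectrometry, three biological replicates.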
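For solubility in G1/S (NP-40 vs SDS abundance) in this document: HeLa Kyoto cells arrested at G1/S by double thymidine block, proteins quantified by TMT10plex mass spectrometry in mild NP-40 versus SDS extracts, three biological replicates.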
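For thermal stability score vs G1/S (z-score of summed log2 fold changes over temperatures) in this document: synchronized HeLa Kyoto cells, proteins quantified by TMT10plex mass spectrometry, three biological replicates, mitosis taken 0.5 h after nocodazole release, G1/S directly after double thymidine block.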

Sequence | solubility in G1/S (log2) [1] | melting temperature ([2]; cell cycle stage: G1/S) [°C] | melting temperature ([2]; cell cycle stage: mitosis) [°C] | solubility change mitosis (log2) [3] | thermal stability score [4, 5] | thermal stability score ([4]; cell cycle stage: mitosis)
MPEDQAGAAMEEASPYSLLDICLNFLTTHLEKFCSARQDGTLCLQEPGVFPQEVADRLLRTMAFHGLLNDGTVGIFRGNQMRLKRACIRKAKISAVAFRKAFCHHKLVELDATGVNADITITDIISGLGSNKWIQQNLQCLVLNSLTLSLEDPYERCFSRLSGLRALSITNVLFYNEDLAEVASLPRLESLDISNTSITDITALLACKDRLKSLTMHHLKCLKMTTTQILDVVRELKHLNHLDISDDKQFTSDIALRLLEQKDILPNLVSLDVSGRKHVTDKAVEAFIQQRPSMQFVGLLATDAGYSEFLTGEGHLKVSGEANETQIAEALKRYSERAFFVREALFHLFSLTHVMEKTKPEILKLVVTGMRNHPMNLPVQLAASACVFNLTKQDLAAGMPVRLLADVTHLLLKAMEHFPNHQQLQKNCLLSLCSDRILQDVPFNRFEAAKLVMQWLCNHEDQNMQRMAVAIISILAAKLSTEQTAQLGTELFIVRQLLQIVKQKTNQNSVDTTLKFTLSALWNLTDESPTTCRHFIENQGLELFMRVLESFPTESSIQQKVLGLLNNIAEVQELHSELMWKDFIDHISSLLHSVEVEVSYFAAGIIAHLISRGEQAWTLSRSQRNSLLDDLHSAILKWPTPECEMVAYRSFNPFFPLLGCFTTPGVQLWAVWAMQHVCSKNPSRYCSMLIEEGGLQHLYNIKDHEHTDPHVQQIAVAILDSLEKHIVRHGRPPPCKKQPQARLN [ZYG11B] | -0.136 | 52.4 | 52.3 | -0.182 | 2.24 | 0.857
MPEEGSGCSVRRRPYGCVLRAALVPLVAGLVICLVVCIQRFAQAQQQLPLESLGWDVAELQLNHTGPQQDPRLYWQGGPALGRSFLHGPELDKGQLRIHRDGIYMVHIQVTLAICSSTTASRHHPTTLAVGICSPASRSISLLRLSFHQGCTIASQRLTPLARGDTLCTNLTGTLLPSRNTDETFFGVQWVRP [CD70] | 0.258 | 54.9 | 57.1 | -0.0934 | -2.35 | -1.58
MPFAEDKTYKYICRNFSNFCNVDVVEILPYLPCLTARDQDRLRATCTLSGNRDTLWHLFNTLQRRPGWVEYFIAALRGCELVDLADEVASVYQSYQPRTSDRPPDPLEPPSLPAERPGPPTPAAAHSIPYNSCREKEPSYPMPVQETQAPESPGENSEQALQTLSPRAIPRNPDGGPLESSSDLAALSPLTSSGHQEQDTELGSTHTAGATSSLTPSRGPVSPSVSFQPLARSTPRASRLPGPTGSVVSTGTSFSSSSPGLASAGAAEGKQGAESDQAEPIICSSGAEAPANSLPSKVPTTLMPVNTVALKVPANPASVSTVPSKLPTSSKPPGAVPSNALTNPAPSKLPINSTRAGMVPSKVPTSMVLTKVSASTVPTDGSSRNEETPAAPTPAGATGGSSAWLDSSSENRGLGSELSKPGVLASQVDSPFSGCFEDLAISASTSLGMGPCHGPEENEYKSEGTFGIHVAENPSIQLLEGNPGPPADPDGGPRPQADRKFQEREVPCHRPSPGALWLQVAVTGVLVVTLLVVLYRRRLH [MAVS] | 0.462 | 54.2 | 54.4 | -0.239 | -0.897 | -0.611
MPGPAAGSRARVYAEVNSLRSREYWDYEAHVPSWGNQDDYQLVRKLGRGKYSEVFEAINITNNERVVVKILKPVKKKKIKREVKILENLRGGTNIIKLIDTVKDPVSKTPALVFEYINNTDFKQLYQILTDFDIRFYMYELLKALDYCHSKGIMHRDVKPHNVMIDHQQKKLRLIDWGLAEFYHPAQEYNVRVASRYFKGPELLVDYQMYDYSLDMWSLGCMLASMIFRREPFFHGQDNYDQLVRIAKVLGTEELYGYLKKYHIDLDPHFNDILGQHSRKRWENFIHSENRHLVSPEALDLLDKLLRYDHQQRLTAKEAMEHPYFYPVVKEQSQPCADNAVLSSGLTAAR [CSNK2A2] | -0.244 | 50.7 | 50.3 | 0.0267 | 1.94 | 2.34
MPGSLPLNAEACWPKDVGIVALEIYFPSQYVDQAELEKYDGVDAGKYTIGLGQAKMGFCTDREDINSLCMTVVQNLMERNNLSYDCIGRLEVGTETIIDKSKSVKTNLMQLFEESGNTDIEGIDTTNACYGGTAAVFNAVNWIESSSWDGRYALVVAGDIAVYATGNARPTGGVGAVALLIGPNAPLIFERGLRGTHMQHAYDFYKPDMLSEYPIVDGKLSIQCYLSALDRCYSVYCKKIHAQWQKEGNDKDFTLNDFGFMIFHSPYCKLVQKSLARMLLNDFLNDQNRDKNSIYSGLEAFGDVKLEDTYFDRDVEKAFMKASSELFSQKTKASLLVSNQNGNMYTSSVYGSLASVLAQYSPQQLAGKRIGVFSYGSGLAATLYSLKVTQDATPGSALDKITASLCDLKSRLDSRTGVAPDVFAENMKLREDTHHLVNYIPQGSIDSLFEGTWYLVRVDEKHRRTYARRPTPNDDTLDEGVGLVHSNIATEHIPSPAKKVPRLPATAAEPEAAVISNGEH [HMGCS1] | 0.0526 | 54 | 55.2 | -0.0813 | -0.19 | 3.42
MPGVKLTTQAYCKMVLHGAKYPHCAVNGLLVAEKQKPRKEHLPLGGPGAHHTLFVDCIPLFHGTLALAPMLEVALTLIDSWCKDHSYVIAGYYQANERVKDASPNQVAEKVASRIAEGFSDTALIMVDNTKFTMDCVAPTIHVYEHHENRWRCRDPHHDYCEDWPEAQRISASLLDSRSYETLVDFDNHLDDIRNDWTNPEINKAVLHLC [EMC8] | 0.269 | 53.1 | 53.3 | -0.272 | -1.83 | -2.67
MPHRKKKPFIEKKKAVSFHLVHRSQRDPLAADESAPQRVLLPTQKIDNEERRAEQRKYGVFFDDDYDYLQHLKEPSGPSELIPSSTFSAHNRREEKEETLVIPSTGIKLPSSVFASEFEEDVGLLNKAAPVSGPRLDFDPDIVAALDDDFDFDDPDNLLEDDFILQANKATGEEEGMDIQKSENEDDSEWEDVDDEKGDSNDDYDSAGLLSDEDCMSVPGKTHRAIADHLFWSEETKSRFTEYSMTSSVMRRNEQLTLHDERFEKFYEQYDDDEIGALDNAELEGSIQVDSNRLQEVLNDYYKEKAENCVKLNTLEPLEDQDLPMNELDESEEEEMITVVLEEAKEKWDCESICSTYSNLYNHPQLIKYQPKPKQIRISSKTGIPLNVLPKKGLTAKQTERIQMINGSDLPKVSTQPRSKNESKEDKRARKQAIKEERKERRVEKKANKLAFKLEKRRQEKELLNLKKNVEGLKL [LTV1] | -0.271 | 50.1 | 48.8 | -0.0961 | -2.27 | -0.672
MPHSYPALSAEQKKELSDIALRIVAPGKGILAADESVGSMAKRLSQIGVENTEENRRLYRQVLFSADDRVKKCIGGVIFFHETLYQKDDNGVPFVRTIQDKGIVVGIKVDKGVVPLAGTDGETTTQGLDGLSERCAQYKKDGADFAKWRCVLKISERTPSALAILENANVLARYASICQQNGIVPIVEPEILPDGDHDLKRCQYVTEKVLAAVYKALSDHHVYLEGTLLKPNMVTPGHACPIKYTPEEIAMATVTALRRTVPPAVPGVTFLSGGQSEEEASFNLNAINRCPLPRPWALTFSYGRALQASALNAWRGQRDNAGAATEEFIKRAEVNGLAAQGKYEGSGEDGGAAAQSLYIANHAY [ALDOC] | 0.202 | 56.9 | 57 | -0.0816 | -1.31 | -2.38
MPKKAKPTGSGKEEGPAPCKQMKLEAAGGPSALNFDSPSSLFESLISPIKTETFFKEFWEQKPLLIQRDDPALATYYGSLFKLTDLKSLCSRGMYYGRDVNVCRCVNGKKKVLNKDGKAHFLQLRKDFDQKRATIQFHQPQRFKDELWRIQEKLECYFGSLVGSNVYITPAGSQGLPPHYDDVEVFILQLEGEKHWRLYHPTVPLAREYSVEAEERIGRPVHEFMLKPGDLLYFPRGTIHQADTPAGLAHSTHVTISTYQNNSWGDFLLDTISGLVFDTAKEDVELRTGIPRQLLLQVESTTVATRRLSGFLRTLADRLEGTKELLSSDMKKDFIMHRLPPYSAGDGAELSTPGGKLPRLDSVVRLQFKDHIVLTVLPDQDQSDEAQEKMVYIYHSLKNSRETHMMGNEEETEFHGLRFPLSHLDALKQIWNSPAISVKDLKLTTDEEKESLVLSLWTECLIQVV [MINA] | -0.11 | 53.4 | 51.4 | -0.0273 | 3.05 | 0.952
MPKKKTGARKKAENRREREKQLRASRSTIDLAKHPCNASMECDKCQRRQKNRAFCYFCNSVQKLPICAQCGKTKCMMKSSDCVIKHAGVYSTGLAMVGAICDFCEAWVCHGRKCLSTHACACPLTDAECVECERGVWDHGGRIFSCSFCHNFLCEDDQFEHQASCQVLEAETFKCVSCNRLGQHSCLRCKACFCDDHTRSKVFKQEKGKQPPCPKCGHETQETKDLSMSTRSLKFGRQTGGEEGDGASGYDAYWKNLSSDKYGDTSYHDEEEDEYEAEDDEEEEDEGRKDSDTESSDLFTNLNLGRTYASGYAHYEEQEN [ZNF330] | -0.262 | 50.4 | 50.9 | -0.0758 | 3.84 | 0.774
